{
  "source": "paper doi:10.1101/2020.01.10.902072",
  "about": "(bioRxiv, 2020)",
  "proteins": {"B1": {"name": "rat GluD2 receptor, C-terminally truncated at residue 870 (GluD2Δ870) (receptor, UniProt Q63226 24-870, looked up)", "chain": "DSIIHIGAIFDESAKKDDEVFRTAVGDLNQNEEILQTEKITFSVTFVDGNNPFQAVQEACELMNQGILALVSSIGCTSAGSLQSLADAMHIPHLFIQRSTAGTPRSGCGLTRSNRNDDYTLSVRPPVYLNEVILRVVTEYAWQKFIIFYDSEYDIRGIQEFLDKVSQQGMDVALQKVENNINKMITTLFDTMRIEELNRYRDTLRRAILVMNPATAKSFISEVVETNLVAFDCHWIIINEEINDVDVQELVRRSIGRLTIIRQTFPVPQNISQRCFRGNHRISSTLCDPKDPFAQNMEISNLYIYDTVLLLANAFHKKLEDRKWHSMASLSCIRKNSKPWQGGRSMLETIKKGGVNGLTGDLEFGENGGNPNVHFEILGTNYGEELGRGVRKLGCWNPVTGLNGSLTDKKLENNMRGVVLRVVTVLEEPFVMVSENVLGKPKKYQGFSIDVLDALSNYLGFNYEIYVAPDHKYGSPQEDGTWNGLVGELVFKRADIGISALTITPDRENVVDFTTRYMDYSVGVLLRRAEKTVDMFACLAPFDLSLWACIAGTVLLVGLLVYLLNWLNPPRLQMGSMTSTTLYNSMWFVYGSFVQQGGEVPYTTLATRMMMGAWWLFALIVISSYTANLAAFLTITRIESSIQSLQDLSKQTDIPYGTVLDSAVYQHVRMKGLNPFERDSMYSQMWRMINRSNGSENNVLESQAGIQKVKYGNYAFVWDAAVLEYVAINDPDCSFYTVGNTVADRGYGIALQHGSPYRDVFSQRILELQQSGDMDILKHKWWPKNGQCDLYSSVDAKQKGGALDIKSLAGVFCILAAGIVLSCLIAVLETWWSRRKGSRVPSKEDDK"}},
  "target": "the molecule itself",
  "assay": "cryo-EM structure",
  "data": [
    {"protein": "B1", "values": [
      {"measurement": "stoichiometry N", "result": 4}
    ]}
  ]
}
